Assay results taken from article PMC12407893 (bioRxiv, 2025).

T1: RPB5, as subunit of purified yeast pol II (S. cerevisiae, UniProt P20434 1-215)
T1 sequence: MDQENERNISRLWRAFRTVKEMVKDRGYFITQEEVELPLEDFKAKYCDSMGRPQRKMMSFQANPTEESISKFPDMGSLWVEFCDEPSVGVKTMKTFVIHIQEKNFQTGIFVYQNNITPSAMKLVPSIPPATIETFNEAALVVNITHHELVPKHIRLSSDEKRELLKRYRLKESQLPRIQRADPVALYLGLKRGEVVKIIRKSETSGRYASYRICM

B1: protein A-tagged Prp40, full length (natural protein)
chain: MSIWKEAKDASGRIYYYNTLTKKSTWEKPKELISQEELLLRENGWKAAKTADGKVYYYNPTTRETSWTIPAFEKKVEPIAEQKHDTVSHAQVNGNRIALTAGEKQEPGRTINEEESQYANNSKLLNVRRRTKEEAEKEFITMLKENQVDSTWSFSRIISELGTRDPRYWMVDDDPLWKKEMFEKYLSNRSADQLLKEHNETSKFKEAFQKMLQNNSHIKYYTRWPTAKRLIADEPIYKHSVVNEKTKRQTFQDYIDTLIDTQKESKKKLKTQALKELREYLNGIITTSSSETFITWQQLLNHYVFDKSKRYMANRHFKVLTHEDVLNEYLKIVNTIENDLQNKLNELRLRNYTRDRIARDNFKSLLREVPIKIKANTRWSDIYPHIKSDPRFLHMLGRNGSSCLDLFLDFVDEQRMYIFAQRSIAQQTLIDQNFEWNDADSDEITKQNIEKVLENDRKFDKVDKEDISLIVDGLIKQRNEKIQQKLQNERRILEQKKHYFWLLLQRTYTKTGKPKPSTWDLASKELGESLEYKALGDEDNIRRQIFEDFKPESSAPTAESATANLTLTASKKRHLTPAVELDY
B2: GST-fused Prp40 FF4 domain (351–415) (domain or fragment)
chain: NYTRDRIARDNFKSLLREVPIKIKANTRWSDIYPHIKSDPRFLHMLGRNGSSCLDLFLDFVDEQR
B3: GST-fused Prp40 FF2 domain (204–269) (domain or fragment)
chain: FKEAFQKMLQNNSHIKYYTRWPTAKRLIADEPIYKHSVVNEKTKRQTFQDYIDTLIDTQKESKKKL
B4: GST-fused Prp40 FF1 domain (134–189) (domain or fragment)
chain: EAEKEFITMLKENQVDSTWSFSRIISELGTRDPRYWMVDDDPLWKKEMFEKYLSNR
B5: GST-fused Prp40 FF3 domain (270–335) (domain or fragment)
chain: KTQALKELREYLNGIITTSSSETFITWQQLLNHYVFDKSKRYMANRHFKVLTHEDVLNEYLKIVNT
B6: GST-fused Prp40 FF6 extension (488–583) (domain or fragment)
chain: NERRILEQKKHYFWLLLQRTYTKTGKPKPSTWDLASKELGESLEYKALGDEDNIRRQIFEDFKPESSAPTAESATANLTLTASKKRHLTPAVELDY
B7: Prp40 FF4–6 (351–552) (domain or fragment)
chain: NYTRDRIARDNFKSLLREVPIKIKANTRWSDIYPHIKSDPRFLHMLGRNGSSCLDLFLDFVDEQRMYIFAQRSIAQQTLIDQNFEWNDADSDEITKQNIEKVLENDRKFDKVDKEDISLIVDGLIKQRNEKIQQKLQNERRILEQKKHYFWLLLQRTYTKTGKPKPSTWDLASKELGESLEYKALGDEDNIRRQIFEDFKPE

Assays:
[1] = molecular target: T2, yeast RNA polymerase II (pol II) WT, TAP tag on RPB3 (S. cerevisiae, UniProt P04050;P08518;P16370;P20433;P20434;P20435;P34087;P20436;P27999;P22139;P38902;P40 …); assay: pull-down
[2] = molecular target: T2, yeast RNA polymerase II (pol II) WT, …; assay: pull-down; remark: listed apart in the source
[3] = molecular target: RPB1, as subunit of purified yeast pol II (S. cerevisiae, UniProt P04050 1-1733); assay: cross-linking
[4] = molecular target: T2, yeast RNA polymerase II (pol II) WT, …; assay: cross-linking
[5] = molecular target: T1, RPB5, as subunit of purified yeast pol …; assay: cross-linking

Chain of RPB1, as subunit of purified yeast pol II (P04050 whole entry): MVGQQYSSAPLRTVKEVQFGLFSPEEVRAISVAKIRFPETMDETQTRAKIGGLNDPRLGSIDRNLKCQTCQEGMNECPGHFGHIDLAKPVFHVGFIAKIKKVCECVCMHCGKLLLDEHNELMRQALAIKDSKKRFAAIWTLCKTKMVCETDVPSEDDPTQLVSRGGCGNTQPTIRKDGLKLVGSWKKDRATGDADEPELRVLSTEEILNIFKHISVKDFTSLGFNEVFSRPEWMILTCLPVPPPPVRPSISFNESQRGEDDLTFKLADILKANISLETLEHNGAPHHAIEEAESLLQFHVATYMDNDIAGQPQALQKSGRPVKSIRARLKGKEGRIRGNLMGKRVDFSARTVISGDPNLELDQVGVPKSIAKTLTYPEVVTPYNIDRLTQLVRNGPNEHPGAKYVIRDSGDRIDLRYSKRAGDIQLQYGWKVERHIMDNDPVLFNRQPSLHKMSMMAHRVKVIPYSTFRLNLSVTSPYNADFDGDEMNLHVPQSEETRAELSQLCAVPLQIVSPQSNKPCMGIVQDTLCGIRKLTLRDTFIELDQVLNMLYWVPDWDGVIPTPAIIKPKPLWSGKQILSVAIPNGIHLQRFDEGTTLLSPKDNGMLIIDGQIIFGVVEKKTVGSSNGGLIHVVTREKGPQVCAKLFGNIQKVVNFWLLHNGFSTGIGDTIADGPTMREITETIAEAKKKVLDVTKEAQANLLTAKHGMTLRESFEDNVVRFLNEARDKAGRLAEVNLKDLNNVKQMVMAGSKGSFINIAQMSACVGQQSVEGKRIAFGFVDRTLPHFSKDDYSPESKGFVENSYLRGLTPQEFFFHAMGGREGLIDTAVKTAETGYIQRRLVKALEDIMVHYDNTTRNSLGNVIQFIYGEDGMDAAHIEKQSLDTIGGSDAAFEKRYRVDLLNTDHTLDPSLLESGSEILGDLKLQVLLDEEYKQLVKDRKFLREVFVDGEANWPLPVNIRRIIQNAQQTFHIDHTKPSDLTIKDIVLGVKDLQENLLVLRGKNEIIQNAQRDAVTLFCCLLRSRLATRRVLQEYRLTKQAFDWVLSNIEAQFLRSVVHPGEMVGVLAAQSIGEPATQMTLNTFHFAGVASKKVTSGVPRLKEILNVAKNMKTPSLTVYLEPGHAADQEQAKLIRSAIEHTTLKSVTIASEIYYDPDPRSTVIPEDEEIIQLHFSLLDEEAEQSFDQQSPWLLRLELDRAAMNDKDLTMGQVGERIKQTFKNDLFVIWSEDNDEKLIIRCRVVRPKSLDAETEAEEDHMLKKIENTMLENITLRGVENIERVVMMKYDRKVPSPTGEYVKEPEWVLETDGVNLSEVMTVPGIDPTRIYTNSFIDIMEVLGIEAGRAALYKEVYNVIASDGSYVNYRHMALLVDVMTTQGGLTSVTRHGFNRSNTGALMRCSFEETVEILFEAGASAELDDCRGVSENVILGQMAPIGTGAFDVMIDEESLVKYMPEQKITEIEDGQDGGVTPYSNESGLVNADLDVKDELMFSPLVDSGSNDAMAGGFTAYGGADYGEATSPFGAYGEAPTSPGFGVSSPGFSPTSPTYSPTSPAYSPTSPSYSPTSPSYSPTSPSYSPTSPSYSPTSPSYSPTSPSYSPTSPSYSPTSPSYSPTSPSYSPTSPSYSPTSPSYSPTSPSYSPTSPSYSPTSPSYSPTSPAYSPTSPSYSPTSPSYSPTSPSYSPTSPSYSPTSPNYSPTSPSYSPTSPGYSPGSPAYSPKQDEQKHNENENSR

| Binder | binding result [2] | other results |
| --- | --- | --- |
| B1 | – | binding result [1]: binds |
| B2 | binds | – |
| B3 | binds | – |
| B4 | binds | – |
| B5 | binds | – |
| B6 | binds | – |
| B7 | – | binding result [3]: binds; binding result [4]: binds; binding result [5]: binds |
